This test concerns the target Complement C2 (human) (human) (UniProt P06681). Description: cell-based or functional assay.

Chain of Complement C2 (human) (human) (P06681 21-752 limits assumed): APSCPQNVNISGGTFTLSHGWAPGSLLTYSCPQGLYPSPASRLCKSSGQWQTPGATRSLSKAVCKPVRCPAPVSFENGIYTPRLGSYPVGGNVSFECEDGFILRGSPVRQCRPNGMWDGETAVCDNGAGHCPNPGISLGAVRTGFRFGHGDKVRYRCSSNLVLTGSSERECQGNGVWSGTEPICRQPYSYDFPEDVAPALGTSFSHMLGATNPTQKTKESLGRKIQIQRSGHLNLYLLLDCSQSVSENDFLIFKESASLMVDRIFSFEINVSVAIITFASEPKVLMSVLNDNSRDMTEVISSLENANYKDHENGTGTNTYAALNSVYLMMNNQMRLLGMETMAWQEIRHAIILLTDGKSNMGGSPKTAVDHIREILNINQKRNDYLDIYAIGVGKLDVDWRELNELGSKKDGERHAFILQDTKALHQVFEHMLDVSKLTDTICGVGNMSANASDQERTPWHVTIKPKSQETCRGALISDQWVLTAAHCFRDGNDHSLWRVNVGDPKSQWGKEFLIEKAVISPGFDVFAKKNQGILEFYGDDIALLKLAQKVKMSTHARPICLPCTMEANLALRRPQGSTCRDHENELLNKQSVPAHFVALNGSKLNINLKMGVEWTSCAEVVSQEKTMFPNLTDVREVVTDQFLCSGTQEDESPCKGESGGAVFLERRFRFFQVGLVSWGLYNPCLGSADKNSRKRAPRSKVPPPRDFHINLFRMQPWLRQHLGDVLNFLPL

“modified MT-SP1 CB42 (Y146E) protease domain (from UniProt Q9Y5Y6 615-855) (enzyme)”: the IC50 of the proteases for cleavage of C2 (Western blot densitometry, 5% human plasma, 1 h 37 C) worked out at 11.9 nM.
The result for “wildtype MT-SP1 protease domain (CB200) (from UniProt Q9Y5Y6 615-855) (enzyme)” reads 15.7 nM.

For the origin of these results see patent US20070093443A1.
